# Results: patent US20090118184A1 (UNIVERSITY OF ROCHESTER, published 2009)
# Substitutions are numbered along the chain they refer to.
# B1: factor VIIIa A2 subunit, wild type (other)
# chain: SVAKKHPKTWVHYIAAEEEDWDYAPLVLAPDDRSYKSQYLNNGPQRIGRKYKKVRFMAYTDETFKTREAIQHESGILGPLLYGEVGDTLLIIFKNQASRPYNIYPHGITDVRPLYSRRLPKGVKHLKDFPILPGEIFKYKWTVTVEDGPTKSDPRCLTRYYSSFVNMERDLASGLIGPLLICYKESVDQRGNQIMSDKRNVILFSVFDENRSWYLTENIQRFLPNPAGVQLEDPEFQASNIMHSINGYVFDSLQLSVCLHEVAYWYILSIGAQTDFLSVFFSGYTFKHKMVYEDTLTLFPFSGETVFMSMENPGLWILGCHNSDFRNRGMTALLKVSSCDKNTGDYYEDSYEDISAYLLSKNNAIEPR
# What was measured:
# Assay in all cases: cell-based or functional assay
# [1] = target: T1, factor VIIIa A1/A3C1C2 dimer, N1950A (human, UniProt P00451 20-391; P00451 1709-2351)
# T1 sequence 1: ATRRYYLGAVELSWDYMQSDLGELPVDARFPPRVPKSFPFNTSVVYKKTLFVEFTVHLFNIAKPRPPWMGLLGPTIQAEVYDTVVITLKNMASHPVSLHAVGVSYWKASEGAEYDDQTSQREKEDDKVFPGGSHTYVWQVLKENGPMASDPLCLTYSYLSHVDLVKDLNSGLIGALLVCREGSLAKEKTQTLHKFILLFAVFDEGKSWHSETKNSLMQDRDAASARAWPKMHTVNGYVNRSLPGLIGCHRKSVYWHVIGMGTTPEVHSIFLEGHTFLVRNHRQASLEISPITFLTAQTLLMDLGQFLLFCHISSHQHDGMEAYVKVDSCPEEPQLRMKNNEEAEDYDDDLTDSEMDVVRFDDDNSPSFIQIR
# T1 sequence 2: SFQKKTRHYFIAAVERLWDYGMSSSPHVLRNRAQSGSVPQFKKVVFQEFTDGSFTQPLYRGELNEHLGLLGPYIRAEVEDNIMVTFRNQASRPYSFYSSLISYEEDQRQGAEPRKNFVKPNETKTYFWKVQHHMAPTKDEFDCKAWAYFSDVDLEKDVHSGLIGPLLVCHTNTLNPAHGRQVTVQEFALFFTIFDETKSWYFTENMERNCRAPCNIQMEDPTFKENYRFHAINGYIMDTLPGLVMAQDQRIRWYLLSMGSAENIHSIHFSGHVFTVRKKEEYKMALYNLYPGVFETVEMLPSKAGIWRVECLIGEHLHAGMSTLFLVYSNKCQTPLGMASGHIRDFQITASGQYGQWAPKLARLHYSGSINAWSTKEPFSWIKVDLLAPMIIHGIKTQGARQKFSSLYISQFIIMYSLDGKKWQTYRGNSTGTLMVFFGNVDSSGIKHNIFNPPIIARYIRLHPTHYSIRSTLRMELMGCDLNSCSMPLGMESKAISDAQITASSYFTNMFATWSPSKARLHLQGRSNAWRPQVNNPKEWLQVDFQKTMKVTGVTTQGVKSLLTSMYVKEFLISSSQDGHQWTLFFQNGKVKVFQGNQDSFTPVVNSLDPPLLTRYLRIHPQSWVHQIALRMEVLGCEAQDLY
# [2] = target: T2, factor VIIIa A1/A3C1C2 dimer, E287A (human, UniProt P00451 20-391; P00451 1709-2351)
# T2 chain 1: T1 sequence 1 with E287A
# T2 chain 2: T1 sequence 2 with A261N
# [3] = target: T3, factor VIIIa A1/A3C1C2 dimer, H281A (human, UniProt P00451 20-391; P00451 1709-2351)
# T3 chain 1: T1 sequence 1 with H281A
# T3 chain 2: T1 sequence 2 with A261N
# [4] = target: T4, factor VIIIa A1/A3C1C2 dimer, S313A (human, UniProt P00451 20-391; P00451 1709-2351)
# T4 chain 1: T1 sequence 1 with S313A
# T4 chain 2: T1 sequence 2 with A261N
binder,measurement,setting,value
B1,"Factor VIIIa decay rate relative to wild type, FIXa (+)",[1],1.73 relative to wild type
same,"Factor VIIIa decay rate, FIXa (+)",[1],0.0195 min⁻¹
same,"Factor VIIIa decay rate relative to wild type, FIXa (+)",[2],0.78 relative to wild type
same,"Factor VIIIa decay rate, FIXa (+)",[2],0.0088 min⁻¹
same,"Factor VIIIa decay rate relative to wild type, FIXa (+)",[3],3.99 relative to wild type
same,"Factor VIIIa decay rate, FIXa (+)",[3],0.045 min⁻¹
same,"Factor VIIIa decay rate relative to wild type, FIXa (+)",[4],1.86 relative to wild type
same,"Factor VIIIa decay rate, FIXa (+)",[4],0.021 min⁻¹
